Test results reported in US7407933B2, “Drug containing angiotensin convertase” (priority 2002, dated 2008).
Residue numbers refer to the chain shown, from its start. Names and notes keep the numbering of the source.

How the values were obtained:
sperm-zona binding = assay: Sperm-egg (zona pellucida) binding assay; format: cell-based, mouse
Protocol: All gametes were placed and handled within TYH medium. […] were isolated from wild-type mice and ACE knockout mice, and dispersed in 250 μl of medium. After sperms were floated for 15 minutes, transferred to 1.5 ml medium and incubated for at least 1 hour. Eggs were separated from superovulated mice and treated with 1 mg/ml of hyaluronidase (Sigma) on THY medium for removing laminated cells. Incubated sperms (approximately 2.0×10^6 sperm/ml) were treated for 90 min with 0.2 U wild-type ACE (ACE-WT), 0.2 U ACE-E414D, 1.0 IU/ml PI-PLC, or […] PI-PLC with 4 mM inositol monophosphate (Sigma), 4 mM inositol monophosphate, and buffer (PBS) alone. For the sperm-egg (zona pellucida) binding assay, gametes were co-incubated in a TYH droplet covered with mineral oil for 1 h, washed gently in PBS and fixed with 4% paraformaldehyde/PBS. The oocytes were visualized at 200× under a light microscope (Olympus) and the number of sperms was counted at a focus showing the widest diameter of eggs.
In addition, the effect of ACE on sperm-egg binding was examined. That is, Epididymal sperms of both wild-type and knockout mice were treated with either wild-type or peptidase-inactivated (E414D) ACEs or PI-PLC and then incubated with unfertilized eggs from C57BL/6 mice. These treatments had no effects on wild-type sperm-zona binding.

DAF = conditions: erythrocyte having prominent acylation; cited from earlier work
PLAP = PLAP conversion assay (GPI-anchored protein releasing activity); format: biochemical; conditions: immunoblotting of PLAP
Protocol: This assay uses a nature of nonionic detergent, TritonX-114, which distributes water-soluble molecules and hydrophobia molecules soluble to detergent. By the PLAP conversion assay, GPI-anchored protein releasing activity in a course of purification was monitored. PLAP was prepared by expressing cDNA in COS7 cells, extracted by buffer containing 20 mM Tris, pH 8.0, 150 mM NaCl, 1% TritonX-114, Complete™ protease-inhibitor and the detergent-soluble phase was collected after partitioning at 37° C. PLAP was purified by DEAE-cellulose ionic exchange liquid chromatography (LC) (elution buffer: […] tris pH8.0, 0.1% TritonX-100, 0 mM-500 mM NaCl gradient) and anti-PLAP antibody column (antibody: rabbit anti-PLAP polyclonal antibody, Biomeda; Column: Hitrap NHS-Activated HP, Amercham Bioscience; elution buffer: 100 mM glycine pH2.8). Using detergent-soluble PLAP protein as substrate performed assay. PLAP activity was measured with an alkaline phosphatase detection kit (Nacalai tesque). The conversion reaction was performed in 100 mM Tris, pH 7.5, 5 mM CaCl2, 150 mM NaCl and 0.3 IU/ml of PLAP for 90 min at 37° C. The reaction was stopped by adding TritonX-114 at a final concentration of 2% and 1 mM EDTA, followed by microcentrifugation at 25° C. The water-soluble phase was collected and PLAP activity was measured by the alkaline phosphatase detection kit. […]

[1] = Peptidase activity of ACE; format: biochemical; conditions: relative to wild-type ACE
Protocol: FIG. 7 is a measurement of peptidase activity (Pase). The E414D is a mutant that Glu414 in the peptidase active site was substituted to Asp. WT, wild-type ACE-T. Procedures were accorded with the description of Kasahara and Ashihara, Clin Chem. 27:1922-1925.
The obtained PCR product encodes a FLAG-tagged version of the soluble testicular isoform. The cDNA for peptidase-inactivated mutant with amino acid Glu414 replaced by Asp was prepared by the site-directed mutagenesis with the mutation promer: 5′-cttggtgatag cgcaccacga tatgggccac atccagtatt tcatgca-3′ (SEQ ID NO: 3). The culture supernatants of COS7 cells transfected with the ACE cDNAs were collected and recombinant ACEs were purified by anti-FLAG M2-agarose affinity column (Sigma). The somatic isoform of ACE (ACE-S) from rabbit lung (Sigma A-6778) was also used according to the manufacturer's protocol. The peptidase activity of the ACE was measured by the reported method (Kawahara and Ashihara, Clin. Chem. 27:1922-1925, 1981). 1.9. FACS Analysis

EGFP-GPI [2] = assay: FACS analysis of shedding, EGFP-GPI on F9 cells; format: cell-based; conditions: without filipin pre-treatment
EGFP-GPI [3] = assay: Radiolabeling analysis of released EGFP-GPI from F9 cells; format: cell-based; conditions: filipin-pretreated F9 cells
Protocol: F9 cells expressing EGFP-GPI were metabolically labeled with 0.2 mCi/ml of [^32P]-orthophosphoric acid (Amersham Bioscience) or 0.1 mCi/ml of [^3H]-ethanolamine (Amersham Bioscience) for 16 h. Filipin-pretreated cells were incubated with 0.5 μM of ACE, 1.0 IU/ml of PI-PLC or 10% lysate of mouse submaxillary gland containing mouse glandular kallikrein (mGK; enzyme digesting EGFP at near C-terminus) for 1 h at 37° C. Released EGFP was immunoprecipitated with anti-GFP antibody, subjected to SDS-PAGE and transferred onto nitrocellulose membrane. The quantity of EGFP-GPI protein was evaluated by measuring the density of bands detected on EGFP immunoblotting by using a densitometer (Molecular Device) and radioactivity of the cognate band was determined by a liquid scintillation counter.
Therefore, the F9 cells expressing EGFP-GPI were metabolically labeled with [^32P]-phosphate or [^3H]-ethanolamine, and treated with ACE, PI-PLC or mGK. Then, the released proteins from the cells were applied to EGFP immunoblotting, to measure radioactivity for each band (FIG. 15). Measurements were performed at least four times, and the almost same results were obtained. Although the released EGFP-GPI products with ^32P or ^3H labeling were not detected by mGK treatments, both were detected by ACE treatment or PI-PLC treatment, indicating the presence of a portion of GPI-anchor structure in the ACE-released molecules.

prion protein = conditions: HEK293 cells, 1.0 U/ml
E-cadherin = assay: FACS analysis of shedding, E-cadherin on F9 cells; format: cell-based, mouse
CD59 = assay: FACS analysis of shedding, CD59 on HeLa cells; format: cell-based, human; conditions: filipin pre-treated HeLa cells

O=P(O)(O)O[C@@H]1[C@@H](O)[C@H](O)[C@@H](O)[C@H](O)[C@@H]1O [inositol monophosphate, reference compound]
inhibition of the PI-PLC effect on egg binding of ACE knockout sperm (sperm-zona binding; 4 mM with PI-PLC): inhibition

B1: GPI-PLD: only mammalian enzyme known so far showing GPI-anchor-cleaving activity (protein, UniProt P80108 24-840, looked up)
Phosphatidylinositol-glycan-sp …: CGLSTHVEIGHRALEFLQLHNGRVNYRELLLEHQDAYQAGIVFPDCFYPSICKGGKFHDVSESTHWTPFLNASVHYIRENYPLPWEKDTEKLVAFLFGITSHMAADVSWHSLGLEQGFLRTMGAIDFHGSYSEAHSAGDFGGDVLSQFEFNFNYLARRWYVPVKDLLGIYEKLYGRKVITENVIVDCSHIQFLEMYGEMLAVSKLYPTYSTKSPFLVEQFQEYFLGGLDDMAFWSTNIYHLTSFMLENGTSDCNLPENPLFIACGGQQNHTQGSKMQKNDFHRNLTTSLTESVDRNINYTERGVFFSVNSWTPDSMSFIYKALERNIRTMFIGGSQLSQKHVSSPLASYFLSFPYARLGWAMTSADLNQDGHGDLVVGAPGYSRPGHIHIGRVYLIYGNDLGLPPVDLDLDKEAHRILEGFQPSGRFGSALAVLDFNVDGVPDLAVGAPSVGSEQLTYKGAVYVYFGSKQGGMSSSPNITISCQDIYCNLGWTLLAADVNGDSEPDLVIGSPFAPGGGKQKGIVAAFYSGPSLSDKEKLNVEAANWTVRGEEDFSWFGYSLHGVTVDNRTLLLVGSPTWKNASRLGHLLHIRDEKKSLGRVYGYFPPNGQSWFTISGDKAMGKLGTSLSSGHVLMNGTLKQVLLVGAPTYDDVSKVAFLTVTLHQGGATRMYALTSDAQPLLLSTFSGDRRFSRFGGVLHLSDLDDDGLDEIIMAAPLRIADVTSGLIGGEDGRVYVYNGKETTLGDMTGKCKSWITPCPEEKAQYVLISPEASSRFGSSLITVRSKAKNQVVIAAGRSSLGARLSGALHVYSLGSD
release of DAF from the intact erythrocyte (DAF): could not release

B2: ACE (E414D): peptidase-inactivated mutant ACE with amino acid Glu414 replaced by Asp (protein, listed as Mus musculus)
chain: MGQGWATPGLPSFLFLLLCCGHHLLVLSQVATDHVTANQGITNQATTRSQTTTHQATIDQTTQIPNLETDEAKADRFVEEYDRTAQVLLNEYAEANWQYNTNITIEGSKILLEKSTEVSNHTLKYGTRAKTFDVSNFQNSSIKRIIKKLQNLDRAVLPPKELEEYNQILLDMETTYSLSNICYTNGTCMPLEPDLTNMMATSRKYEELLWAWKSWRDKVGRAILPFFPKYVEFSNKIAKLNGYTDAGDSWRSLYESDNLEQDLEKLYQELQPLYLNLHAYVRRSLHRHYGSEYINLDGPIPAHLLGNMWAQTWSNIYDLVAPFPSAPNIDATEAMIKQGWTPRRIFKEADNFFTSLGLLPVPPEFWNKSMLEKPTDGREVVCHPSAWDFYNGKDFRIKQCTSVNMEDLVIAHHDMGHIQYFMQYKDLPVTFREGANPGFHEAIGDIMALSVSTPKHLYSLNLLSTEGSGYEYDINFLMKMALDKIAFIPFSYLIDQWRWRVFDGSITKENYNQEWWSLRLKYQGLCPPVPRSQGDFDPGSKFHVPANVPYVRYFVSFIIQFQFHEALCRAAGHTGPLHKCDIYQSKEAGKLLADAMKLGYSKPWPEAMKLITGQPNMSASAMMNYFKPLTEWLVTENRRHGETLGWPEYNWAPNTARAEGSTAESNRVNFLGLYLEPQQARVGQWVLLFLGVALLVATVGLAHRLYNIRNHHSLRRPHRGPQFGSEVELRHSLAHRLYNIRNHHSLRRPHRGPQFGSEVELRHS
sperm-zona binding of ACE knockout sperm (sperm-zona binding; epididymal sperm of ACE knockout mice, eggs from C57BL/6 mice): vigorously restored | GPI-anchored protein releasing activity compared with wild-type ACE (PLAP): not changed | peptidase activity compared with wild-type ACE [1]: less than 1/1000

B3: ACE: angiotensin-converting enzyme, isoform not named at the place (ACE-S in the FACS tests of b107/b108) (protein, listed as Mus musculus)
chain: B2 chain with D414E
effect on EGFP-GPI expression (EGFP-GPI [2]): little effect | radioactivity of released products compared with PI-PLC-released molecules, labeled on the ethanolamine (EGFP-GPI [3]; 3H ethanolamine label): a half | radioactivity of released products compared with PI-PLC-released molecules, labeled on the phosphate (EGFP-GPI [3]; 32P phosphate label): about one-third | released EGFP-GPI products with 32P or 3H labeling (EGFP-GPI [3]): detected | shedding of prion protein from cell surface (prion protein): efficiently shed | effect on the transmembrane protein E-cadherin (E-cadherin): no effect | dose dependence of CD59 shedding (CD59): dose-dependent
